# Starred links: 1 amine or outer side, 2 acyl side, 3 side chain; linkers in the order of their positions; H or OH if unused. Positions of bridges follow the written chain, without caps; N, C: chain ends. Non-standard residues stand in square brackets, D forms with d. Primed or numbered codes have the meaning given here. PyrS2″ = (S)-3-amino-1-((pent-4-en-1-yloxy)carbonyl)pyrrolidine-3-carboxylic acid (stapling residue), C=CCCCOC(=O)N1CC[C@@](N[*:1])(C(=O)[*:2])C1; B5(4) = 2,2-bis(4-pentenyl)glycine = 2-amino-2-(pent-4-en-1-yl)hept-6-enoic acid (stitching residue), C=CCCCC(CCCC=C)(N[*:1])C(=O)[*:2]; B5(5) = 2,2-bis(4-pentenyl)glycine, 2-amino-2-(pent-4-en-1-yl)hept-6-enoic acid (stitching residue), C=CCCCC(CCCC=C)(N[*:1])C(=O)[*:2]; TfeGA = (S)-2-amino-3-((carboxymethyl)(2,2,2-trifluoroethyl)amino)propanoic acid, O=C([C@H](CN(CC(=O)[*:3])CC(F)(F)F)N[*:1])[*:2]; PyrS2 = (S)-3-amino-1-((pent-4-en-1-yloxy)carbonyl)pyrrolidine-3-carboxylic acid, C=CCCCOC(=O)N1CC[C@@](N[*:1])(C(=O)[*:2])C1; B5(12) = 2-amino-2-(pent-4-en-1-yl)hept-6-enoic acid (two olefin side chains), C=CCCCC(CCCC=C)(N[*:1])C(=O)[*:2]; B5(13) = 2-amino-2-(pent-4-en-1-yl)hept-6-enoic acid (two alkene chains), C=CCCCC(CCCC=C)(N[*:1])C(=O)[*:2]; B5(3) = 2,2-bis(4-pentenyl)glycine (stitching residue), C=CCCCC(CCCC=C)(N[*:1])C(=O)[*:2]; Phe(2-Cl) = N[C@@H](Cc1ccccc1Cl)C(=O)O; Phe(2-OMe) = COc1ccccc1C[C@H](N)C(=O)O; 1Nal = N[C@@H](Cc1cccc2ccccc12)C(=O)O; 2Nal = N[C@@H](Cc1ccc2ccccc2c1)C(=O)O; Bta = N[C@@H](Cc1csc2ccccc12)C(=O)O; αAllylPro = C=CC[C@@]1(C(=O)O)CCCN1; tBuAla = CC(C)(C)C[C@H](N)C(=O)O; 3Thi = N[C@@H](Cc1ccsc1)C(=O)O; S8 = C=CCCCCCC[C@](C)(N)C(=O)O; hSer = N[C@@H](CCO)C(=O)O
# B1: I-781 (peptide)
# peptide: Ac-[αAllylPro]D[tBuAla][B5(13)]DDAAFN[PyrS2][Phe(2-OMe)][Bta]H-NH2
# modifications: staple 1-4, 4-11
# B2: I-784 (peptide)
# peptide: Ac-[αAllylPro]D[tBuAla][B5(5)]DDAAFN[PyrS2][Phe(2-Cl)][Bta]H-NH2
# modifications: staple 1-4, 4-11
# B3: I-786 (peptide)
# peptide: Ac-[αAllylPro]D[tBuAla][B5(5)]DEAAFN[PyrS2][3Thi][Bta]-NH2
# modifications: staple 1-4, 4-11
# B4: I-807 (peptide)
# peptide: Ac-[αAllylPro]D[tBuAla][B5(3)]DDAAFF[PyrS2″][3Thi][Bta]Q-NH2
# modifications: staple 1-4, 4-11
# B5: I-844 (peptide)
# peptide: Ac-[αAllylPro]D[tBuAla][B5(4)]DTAAFN[PyrS2][3Thi][Bta]Q-NH2
# modifications: staple 1-4, 4-11
# B6: I-857 (peptide)
# peptide: Ac-[αAllylPro]D[tBuAla][B5(12)]DNAAFN[PyrS2][3Thi][Bta]-NH2
# modifications: staple 1-4, 4-11
# B7: I-864 (peptide)
# peptide: Ac-[αAllylPro]D[tBuAla][B5(12)]DHAAFN[PyrS2][3Thi][Bta]Q-NH2
# modifications: staple 1-4, 4-11
# B8: I-988 (peptide)
# peptide: Ac-[αAllylPro]D[tBuAla][B5(3)]D[TfeGA]AAFF[PyrS2″]F[Bta]Q-NH2
# modifications: staple 1-4, 4-11
# B9: I-990 (peptide)
# peptide: Ac-[αAllylPro]D[tBuAla][B5(3)]D[TfeGA]AAFF[PyrS2″][Phe(2-Cl)][Bta]S-NH2
# modifications: staple 1-4, 4-11
# B10: I-996 (peptide)
# peptide: Ac-[αAllylPro]D[tBuAla][B5(3)]D[TfeGA]AAF[hSer][S8][Phe(2-Cl)][Bta]Q-NH2
# modifications: staple 1-4, 4-11
# B11: I-1232 (peptide)
# peptide: Ac-[αAllylPro]D[tBuAla][B5(5)]DDAAFT[PyrS2″][3Thi][1Nal]Q-NH2
# modifications: staple 1-4, 4-11
# B12: I-1233 (peptide)
# peptide: Ac-[αAllylPro]D[tBuAla][B5(5)]DDAAFT[PyrS2″][3Thi][2Nal]Q-NH2
# modifications: staple 1-4, 4-11
# Tests used:
# [1] = biological target: full-length beta-Catenin (Uniprot ID P35222) (Homo sapiens (Human)) (UniProt P35222); assay: fluorescence polarization competition: peptide titrated against 10 nM full-length beta-catenin + 10 nM 5FAM-TCF4(10-53) probe
# Target sequence in this assay (P35222 2-781 limits assumed): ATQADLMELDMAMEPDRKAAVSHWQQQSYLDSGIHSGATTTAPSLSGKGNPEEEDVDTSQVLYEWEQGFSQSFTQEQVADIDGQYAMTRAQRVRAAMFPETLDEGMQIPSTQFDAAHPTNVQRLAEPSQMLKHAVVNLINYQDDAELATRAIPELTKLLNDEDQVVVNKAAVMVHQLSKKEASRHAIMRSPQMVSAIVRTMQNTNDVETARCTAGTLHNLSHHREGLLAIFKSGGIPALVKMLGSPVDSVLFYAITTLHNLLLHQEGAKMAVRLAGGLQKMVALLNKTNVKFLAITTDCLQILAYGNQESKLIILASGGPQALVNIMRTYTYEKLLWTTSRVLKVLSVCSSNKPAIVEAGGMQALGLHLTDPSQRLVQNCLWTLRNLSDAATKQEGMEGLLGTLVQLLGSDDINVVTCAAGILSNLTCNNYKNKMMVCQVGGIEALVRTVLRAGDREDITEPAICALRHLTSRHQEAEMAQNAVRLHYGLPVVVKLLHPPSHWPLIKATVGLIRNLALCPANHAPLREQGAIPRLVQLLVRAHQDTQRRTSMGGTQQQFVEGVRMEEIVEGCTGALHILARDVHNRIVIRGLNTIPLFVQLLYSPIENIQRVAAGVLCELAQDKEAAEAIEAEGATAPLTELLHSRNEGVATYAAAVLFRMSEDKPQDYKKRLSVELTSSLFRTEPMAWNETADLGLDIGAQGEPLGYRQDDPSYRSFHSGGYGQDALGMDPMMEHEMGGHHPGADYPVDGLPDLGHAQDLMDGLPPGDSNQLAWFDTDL
# [2] = biological target: full-length beta-Catenin (Uniprot ID P35222) (Homo sapiens (Human)) (UniProt P35222); assay: fluorescence polarization competition; peptide displaces 5FAM-TCF4(10-53) from full-length beta-catenin
# Target sequence in this assay (P35222 2-781 limits assumed): as above
# [3] = biological target: B-cat-Halo (beta-catenin HaloTag NanoBRET construct expressed in HEK293 cells) (UniProt P35222); assay: NanoBRET in HEK293 cells, Bcat-Halo + TCF4-Luc (competitor partner TCF4)
# Chain of B-cat-Halo (beta-catenin HaloTag NanoBRET construct expressed in HEK293 cells) (P35222 whole entry): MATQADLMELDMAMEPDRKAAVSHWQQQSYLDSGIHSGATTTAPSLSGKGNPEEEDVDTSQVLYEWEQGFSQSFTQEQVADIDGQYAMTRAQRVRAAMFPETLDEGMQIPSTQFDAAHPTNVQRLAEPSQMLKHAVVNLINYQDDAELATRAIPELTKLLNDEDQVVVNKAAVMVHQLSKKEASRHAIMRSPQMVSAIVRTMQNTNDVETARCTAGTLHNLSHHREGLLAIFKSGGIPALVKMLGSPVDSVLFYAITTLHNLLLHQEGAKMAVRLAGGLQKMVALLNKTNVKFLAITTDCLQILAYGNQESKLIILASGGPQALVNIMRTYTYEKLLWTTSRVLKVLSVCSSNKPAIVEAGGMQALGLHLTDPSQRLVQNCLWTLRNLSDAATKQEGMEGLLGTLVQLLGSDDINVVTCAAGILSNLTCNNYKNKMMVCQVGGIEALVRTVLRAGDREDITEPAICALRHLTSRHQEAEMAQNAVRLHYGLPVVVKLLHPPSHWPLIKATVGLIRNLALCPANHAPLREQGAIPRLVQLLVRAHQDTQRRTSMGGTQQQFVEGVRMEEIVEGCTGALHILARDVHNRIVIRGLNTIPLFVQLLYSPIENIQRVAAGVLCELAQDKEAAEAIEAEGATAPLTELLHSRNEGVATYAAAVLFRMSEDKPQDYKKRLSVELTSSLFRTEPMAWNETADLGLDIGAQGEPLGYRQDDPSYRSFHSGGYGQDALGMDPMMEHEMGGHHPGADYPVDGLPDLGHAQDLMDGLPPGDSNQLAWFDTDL
# [4] = biological target: B-cat-Halo (beta-catenin HaloTag NanoBRET construct expressed in HEK293 cells) (UniProt P35222); assay: NanoBRET in HEK293 cells, Bcat-Halo + TCF4-Luc, peptide at 10 uM
# [5] = biological target: full-length beta-Catenin (Uniprot ID P35222) (Homo sapiens (Human)) (UniProt P35222); assay: fluorescence polarization competition; 10 nM full-length beta-catenin with 10 nM 5FAM-TCF4(10-53) probe as competitor
# Target sequence in this assay (P35222 2-781 limits assumed): as the sequence (P35222 2-781 limits assumed) above
# [6] = biological target: full-length beta-Catenin (Uniprot ID P35222) (Homo sapiens (Human)) (UniProt P35222); assay: fluorescence polarization competition; displacement of 5FAM-TCF4(10-53) from full-length beta-catenin
# Target sequence in this assay (P35222 whole entry, the tested form may be a part, one chain of several): as the sequence (P35222 whole entry) above
# [7] = biological target: full-length beta-Catenin (Uniprot ID P35222) (Homo sapiens (Human)) (UniProt P35222); assay: fluorescence polarization competition; 10 nM full-length beta-catenin with 10 nM 5FAM-TCF4 (residues 10-53) probe as competitor
# Target sequence in this assay (P35222 2-781 limits assumed): as the sequence (P35222 2-781 limits assumed) above
# [8] = biological target: Bcat-Halo (beta-catenin HaloTag construct expressed in HEK293 cells) (UniProt P35222); assay: NanoBRET IC50 in HEK293 cells; Bcat-Halo with TCF4-Luc as competitor
# Chain of Bcat-Halo (beta-catenin HaloTag construct expressed in HEK293 cells) (P35222 whole entry): as the sequence (P35222 whole entry) above
# [9] = biological target: full-length beta-Catenin (Uniprot ID P35222) (Homo sapiens (Human)) (UniProt P35222); assay: FP competition vs 5FAM-TCF4(10-53), full-length beta-catenin
# Target sequence in this assay (P35222 2-781 limits assumed): as the sequence (P35222 2-781 limits assumed) above
# [10] = biological target: Bcat-Halo (UniProt P35222); assay: NanoBRET Abs IC50, HEK293 cells, B-cat-Halo/TCF4-Luc; competitor TCF4-Luc
# Chain of Bcat-Halo (P35222 whole entry): as the sequence (P35222 whole entry) above
# [11] = biological target: full-length beta-Catenin (Uniprot ID P35222) (Homo sapiens (Human)) (UniProt P35222); assay: fluorescence polarization competition; full-length beta-catenin with 5FAM-labeled TCF4 (10-53) probe as competitor
# Target sequence in this assay (P35222 whole entry, the tested form may be a part, one chain of several): as the sequence (P35222 whole entry) above
# [12] = biological target: full-length beta-Catenin (Uniprot ID P35222) (Homo sapiens (Human)) (UniProt P35222); assay: fluorescence polarization competition; full-length beta-catenin, competitor probe 5FAM-TCF4(10-53)
# Target sequence in this assay (P35222 2-781 limits assumed): as the sequence (P35222 2-781 limits assumed) above
# [13] = biological target: B-cat-Halo (beta-catenin HaloTag NanoBRET construct expressed in HEK293 cells) (UniProt P35222); assay: NanoBRET Abs IC50; HEK293 cells transfected with B-cat-Halo and TCF4-Luc (competitor: TCF4-Luc)
# [14] = biological target: full-length beta-Catenin (Uniprot ID P35222) (Homo sapiens (Human)) (UniProt P35222); assay: FP competition: displacement of 5FAM-TCF4(10-53) from full-length beta-catenin
# Target sequence in this assay (P35222 whole entry, the tested form may be a part, one chain of several): as the sequence (P35222 whole entry) above
# [15] = biological target: B-cat-Halo (beta-catenin HaloTag NanoBRET construct expressed in HEK293 cells) (UniProt P35222); assay: NanoBRET Abs IC50 in HEK293 cells; Bcat-Halo, TCF4-Luc as competitor
# [16] = biological target: full-length beta-Catenin (Uniprot ID P35222) (Homo sapiens (Human)) (UniProt P35222); assay: fluorescence polarization competition; full-length beta-catenin, 5FAM-TCF4(10-53) probe as competitor
binder,measurement,setting,value
B1,EC50,[1],5 nM
same,IC50,[2],5 nM
same,IC50,[3],11600 nM
same,NanoBRET % inh @ 10 uM,[4],24%
B2,EC50,[1],6 nM
same,IC50,[2],6 nM
same,IC50,[3],12100 nM
same,NanoBRET % inh @ 10 uM,[4],35.1%
B3,EC50,[1],8 nM
same,IC50,[2],8 nM
same,IC50,[3],17100 nM
B4,IC50,[5],5 nM
same,EC50,[1],5 nM
same,IC50,[3],5300 nM
B5,IC50,[6],6 nM
same,EC50,[7],6 nM
same,IC50,[8],10700 nM
B6,EC50,[7],15 nM
same,IC50,[9],15 nM
same,IC50,[8],50600 nM
same,IC50,[10],30600 nM
B7,EC50,[7],12 nM
same,IC50,[9],12 nM
same,IC50,[8],29100 nM
same,IC50,[10],40000 nM
B8,EC50,[11],5 nM
same,IC50,[12],5 nM
same,IC50,[13],13900 nM
B9,EC50,[11],41 nM
same,IC50,[12],41 nM
same,IC50,[13],8800 nM
B10,EC50,[11],21 nM
same,IC50,[12],21 nM
same,IC50,[13],11300 nM
B11,EC50,[14],31 nM
same,IC50,[15],43300 nM
same,IC50,[16],31 nM
B12,EC50,[14],24 nM
same,IC50,[15],54500 nM
same,IC50,[16],24 nM

# From US20240116985A1, “STAPLED PEPTIDES AND METHODS THEREOF” (priority 2020, published 2024)
